Target: recombinant Myodes glareolus IFN-γ (recMgIFN-γ) (Myodes glareolus (bank vole))
Assay: SEC; analytical gel filtration of 200 µl purified recMgIFN-γ in PBS at room temperature on a calibrated Superdex 75 10/300 GL column, flow rate 0.75 ml/min; detection at 230 and 260 nm

- stoichiometry N: 2
Substance: recombinant Myodes glareolus IFN-γ (recMgIFN-γ) (natural protein)

Source: publication PMC5809609
